# Data taken from paper PMC11271386 (Analytical and Bioanalytical Chemistry, 2024).
# T1: ^FlagDNAJB8^H31Q (human, UniProt Q8NHS0 1-232, H31Q)
# T1 construct: DNAJB8, human Class B Hsp40, with the J-domain mutation H31Q; source: HEK293T, transfected (calcium phosphate), in lysate
# T1 sequence (looked up): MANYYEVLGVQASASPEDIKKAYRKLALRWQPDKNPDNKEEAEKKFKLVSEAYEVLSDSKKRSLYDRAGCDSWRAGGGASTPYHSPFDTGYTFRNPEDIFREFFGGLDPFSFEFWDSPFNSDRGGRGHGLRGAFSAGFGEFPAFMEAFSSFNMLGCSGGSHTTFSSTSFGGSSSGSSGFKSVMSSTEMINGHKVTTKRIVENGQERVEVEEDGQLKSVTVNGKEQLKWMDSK
# T2: ^FlagDNAJB8^WT (human, UniProt Q8NHS0 1-232)
# T2 construct: DNAJB8, human Class B Hsp40 (J-domain protein); also called Hsp40 DNAJB8; source: HEK293T, transfected (calcium phosphate), in lysate
# T2 sequence (looked up): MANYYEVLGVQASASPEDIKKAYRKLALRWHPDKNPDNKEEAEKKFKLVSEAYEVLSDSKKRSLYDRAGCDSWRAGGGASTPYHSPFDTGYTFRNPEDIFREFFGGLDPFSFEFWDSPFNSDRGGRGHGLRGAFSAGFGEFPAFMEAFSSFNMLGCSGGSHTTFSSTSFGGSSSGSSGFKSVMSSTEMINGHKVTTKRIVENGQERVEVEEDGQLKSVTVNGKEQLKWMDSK
# Assays:
# [1] = biological target: T1, ^FlagDNAJB8^H31Q; assay: affinity purification with mass spectrometry; TMT-AP-MS comparing four conditions: ^FlagDNAJB8 WT vs. H31Q, with or without 1 mM DSP crosslinking of the cells before lysis; RIPA lysis and washes, M2 anti-Flag beads; crosslinks reversed with TCEP; three biological replicates; details: partners not purified
# [2] = biological target: T2, ^FlagDNAJB8^WT; assay: as above; details: partners not purified
"fold change of recovery with DNAJB8^H31Q compared to DNAJB8^WT, −DSP [1] [fold]",fold change recovery with DSP crosslinking against without [1] [%],fold change recovery with DSP crosslinking against without [2] [%],Binder
3.4 ± 0.9,–,–,"PFDN1 (natural protein, human (endogenous in HEK293T), UniProt O60925 1-122, looked up, PFDN1, prefoldin β subunit, human; also called prefoldin β subunit; source: endogenous, HEK293T lysate) MAAPVDLELKKAFTELQAKVIDTQQKVKLADIQIEQLNRTKKHAHLTDTEIMTLVDETNMYEGVGRMFILQSKEAIHSQLLEKQKIAEEKIKELEQKKSYLERSVKEAEDNIREMLMARRAQ"
–,3.2 ± 0.8,4.8 ± 0.7,"14–3-3θ/YWHAQ (natural protein, human (endogenous in HEK293T), UniProt P27348 1-245, looked up, 14-3-3 theta (YWHAQ), human; source: endogenous, HEK293T lysate) MEKTELIQKAKLAEQAERYDDMATCMKAVTEQGAELSNEERNLLSVAYKNVVGGRRSAWRVISSIEQKTDTSDKKLQLIKDYREKVESELRSICTTVLELLDKYLIANATNPESKVFYLKMKGDYFRYLAEVACGDDRKQTIDNSQGAYQEAFDISKKEMQPTHPIRLGLALNFSVFYYEILNNPELACTLAKTAFDEAIAELDTLNEDSYKDSTLIMQLLRDNLTLWTSDSAGEECDAAEGAEN"
